In general, Kd refers to a measure of binding affinity in units of concentration.

One assay concerns the target mouse sFlt-1-Fc (mouse) (UniProt P35969). As to the kind of experiment: ELISA.
The target in another assay is VEGFR-2 (Homo sapiens) (UniProt P35968). As to conditions: cited from earlier work.
Sequence of UniProt P35968 (P35968 20-1356): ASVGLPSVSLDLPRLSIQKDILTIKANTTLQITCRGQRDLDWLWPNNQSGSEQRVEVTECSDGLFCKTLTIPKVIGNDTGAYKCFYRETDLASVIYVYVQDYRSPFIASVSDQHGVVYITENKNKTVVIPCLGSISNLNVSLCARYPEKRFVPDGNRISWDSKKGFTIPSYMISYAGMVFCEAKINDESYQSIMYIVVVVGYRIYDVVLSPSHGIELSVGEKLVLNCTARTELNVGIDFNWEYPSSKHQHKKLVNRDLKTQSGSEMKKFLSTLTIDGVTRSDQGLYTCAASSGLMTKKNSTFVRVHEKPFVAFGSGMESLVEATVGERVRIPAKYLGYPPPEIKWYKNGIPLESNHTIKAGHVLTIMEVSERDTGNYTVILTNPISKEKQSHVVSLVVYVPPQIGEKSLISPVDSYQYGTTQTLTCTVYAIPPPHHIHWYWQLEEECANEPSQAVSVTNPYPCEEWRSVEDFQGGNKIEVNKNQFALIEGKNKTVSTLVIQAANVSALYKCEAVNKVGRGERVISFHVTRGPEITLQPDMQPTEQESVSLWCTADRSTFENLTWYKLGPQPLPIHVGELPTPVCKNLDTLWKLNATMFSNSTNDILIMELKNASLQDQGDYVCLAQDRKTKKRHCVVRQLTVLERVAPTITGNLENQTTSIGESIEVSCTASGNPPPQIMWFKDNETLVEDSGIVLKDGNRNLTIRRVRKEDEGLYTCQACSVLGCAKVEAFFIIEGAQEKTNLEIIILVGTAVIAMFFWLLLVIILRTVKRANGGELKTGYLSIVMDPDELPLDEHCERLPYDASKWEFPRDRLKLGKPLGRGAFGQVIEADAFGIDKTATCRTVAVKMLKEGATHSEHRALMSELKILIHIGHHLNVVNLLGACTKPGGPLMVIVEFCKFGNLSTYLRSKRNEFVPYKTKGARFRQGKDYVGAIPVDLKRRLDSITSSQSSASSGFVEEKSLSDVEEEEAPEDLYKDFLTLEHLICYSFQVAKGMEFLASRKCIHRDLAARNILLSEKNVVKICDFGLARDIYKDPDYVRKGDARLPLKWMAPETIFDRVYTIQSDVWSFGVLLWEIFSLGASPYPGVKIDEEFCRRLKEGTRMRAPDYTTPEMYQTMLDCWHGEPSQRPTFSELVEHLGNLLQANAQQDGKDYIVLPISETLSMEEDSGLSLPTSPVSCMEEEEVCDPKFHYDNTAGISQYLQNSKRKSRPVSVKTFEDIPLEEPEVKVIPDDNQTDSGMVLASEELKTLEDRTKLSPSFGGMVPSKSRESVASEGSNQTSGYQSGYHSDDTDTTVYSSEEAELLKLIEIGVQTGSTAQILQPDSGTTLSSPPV

Sequence of UniProt P35969 (P35969 23-758): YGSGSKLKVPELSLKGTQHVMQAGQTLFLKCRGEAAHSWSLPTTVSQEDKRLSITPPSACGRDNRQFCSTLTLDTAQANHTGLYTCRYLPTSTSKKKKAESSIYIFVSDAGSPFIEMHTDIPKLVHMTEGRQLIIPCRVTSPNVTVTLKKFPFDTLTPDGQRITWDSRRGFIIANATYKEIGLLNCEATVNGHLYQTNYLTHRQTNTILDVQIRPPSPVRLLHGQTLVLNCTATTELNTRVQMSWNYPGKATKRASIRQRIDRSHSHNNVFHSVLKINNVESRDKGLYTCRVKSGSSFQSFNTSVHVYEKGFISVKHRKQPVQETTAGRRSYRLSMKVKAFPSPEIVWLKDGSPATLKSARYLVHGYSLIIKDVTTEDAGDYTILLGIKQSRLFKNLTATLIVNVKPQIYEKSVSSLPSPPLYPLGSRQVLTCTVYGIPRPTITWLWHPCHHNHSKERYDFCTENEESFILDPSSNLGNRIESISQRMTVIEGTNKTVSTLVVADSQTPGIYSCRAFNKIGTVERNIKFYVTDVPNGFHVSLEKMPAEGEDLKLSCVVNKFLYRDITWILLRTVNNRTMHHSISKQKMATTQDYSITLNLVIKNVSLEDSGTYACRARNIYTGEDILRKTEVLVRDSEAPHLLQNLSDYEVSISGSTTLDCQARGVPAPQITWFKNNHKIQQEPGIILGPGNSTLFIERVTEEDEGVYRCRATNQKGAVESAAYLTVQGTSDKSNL

VEGF165 (ligand): in the assay with mouse sFlt-1-Fc (mouse), the percent decrease of ELISA-detectable sFlt-1 when VEGF was co-expressed lay in the range of 70 to 80% and the percent decrease of free sFlt-1 in plasma of co-treated mice is more than 70%.

As to VEGF (from UniProt P15692), the Kd in the assay with VEGFR-2 (Homo sapiens) was 0.76 nM.

(Values after article PMC3829045.)
